Experimental data taken from patent publication US10251952B2, “Humanized anti-tau(pS422) antibody brain shuttles and use thereof” (Hoffmann-La Roche Inc., priority 2014, dated 2019).
Changes are numbered by the printed parent chain. Read-outs that look alike come from different tables or passages of the source. Ends that are not written are not given here.

T1: NPY2R (Homo sapiens, UniProt P49146)
T1 sequence (P49146 1-381): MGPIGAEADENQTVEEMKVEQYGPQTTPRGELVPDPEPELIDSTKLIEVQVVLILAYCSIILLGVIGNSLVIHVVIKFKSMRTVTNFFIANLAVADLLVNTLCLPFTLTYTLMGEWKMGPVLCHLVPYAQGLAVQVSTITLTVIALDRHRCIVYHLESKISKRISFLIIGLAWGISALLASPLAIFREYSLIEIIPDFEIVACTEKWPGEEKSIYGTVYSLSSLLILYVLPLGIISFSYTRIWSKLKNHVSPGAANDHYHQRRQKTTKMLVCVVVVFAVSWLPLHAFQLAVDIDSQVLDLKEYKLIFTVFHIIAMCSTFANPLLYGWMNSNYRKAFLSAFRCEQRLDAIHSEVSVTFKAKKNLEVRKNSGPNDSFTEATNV

T2: NPY5R (Homo sapiens, UniProt Q15761)
T2 sequence (Q15761 1-445): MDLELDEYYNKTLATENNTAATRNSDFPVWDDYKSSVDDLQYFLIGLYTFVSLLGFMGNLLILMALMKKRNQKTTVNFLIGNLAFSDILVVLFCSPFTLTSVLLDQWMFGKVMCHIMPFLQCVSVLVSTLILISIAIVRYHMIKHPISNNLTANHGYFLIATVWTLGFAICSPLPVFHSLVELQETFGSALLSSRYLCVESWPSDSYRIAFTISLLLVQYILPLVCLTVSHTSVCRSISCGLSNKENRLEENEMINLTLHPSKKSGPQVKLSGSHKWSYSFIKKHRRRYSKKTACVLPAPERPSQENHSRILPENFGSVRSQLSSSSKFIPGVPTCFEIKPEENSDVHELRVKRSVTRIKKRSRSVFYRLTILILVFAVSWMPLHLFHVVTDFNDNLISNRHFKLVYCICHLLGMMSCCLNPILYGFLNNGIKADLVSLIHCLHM

B1: VH00/VL00: rabbit antibody reference (parent of humanized variants, from mAb 086); VH SEQ ID NO: 11, VL SEQ ID NO: 07 (antibody, listed as Oryctolagus cuniculus, V domains shown)
VH: QSVEESGGRLVTPGTPLTLTCTVSGFSLSSNAINWVRQAPGKGLEWIGYIAVSGNTYYASWAKGRFTISKASTTVDLKMTSPTAEDTGTYFCGKSNIWGPGTLVTVSL
VL: AQVLTQTTSPVSAAVGSTVTISCQSSQSVRTNKLAWFQQKPGQPPKRLIYSASTLDFGVPSRFSASGSGTQFTLTISDVQCDDAATYYCLGYFDCSIADCVAFGGGTEVVVK
B2: VL17 with VH15: anti-human tau(pS422) antibody; VH SEQ ID NO: 51, VL SEQ ID NO: 37 (antibody, V domains shown)
VH: QSVVESGGGLVQPGGSLRLSCAASGFSLSSNAINWVRQAPGKGLEWVGYIAVSGNTYYASWAKGRFTISRDNSKNTLYLQMNSLRAEDTAVYYCGKSNIWGPGTLVTVSS
VL: DIQMTQSPSSLSASVGDRVTITCRSSQSVRTNKLAWFQQKPGQPPKRLIYSASTLDFGVPSRFSGSGSGTEFTLTISSLQPEDFATYYCLGYFDCSIADCVAFGGGTKVEIK
modifications: humanized sequence
B3: VH32/VL21: humanized anti-human tau(pS422) antibody; VH SEQ ID NO: 19, VL SEQ ID NO: 16 (antibody, V domains shown)
VH: EVQVLESGGGLVQPGGSLRLSCAVSGFSLSSNAINWVRQAPGKGLEWVGYIAVSGNTYYASWAKGRFTISRDNSKNTVYLQMNSLRAEDTAVYYCGKSNIWGQGTLVTVSS
VL: AQVMTQSPSSLSASVGDRVTITCRSSQSVRTNKLAWFQQKPGQPPKRLIYSASTLDFGVPSRFSGSGSGTEFTLTISSLQPEDFATYYCLGYFDSSADIVAFGGGTKVEIK
modifications: humanized sequence
B4: VH32/VL22: humanized anti-human tau(pS422) antibody; VH SEQ ID NO: 19, VL SEQ ID NO: 17 (antibody, V domains shown)
VH: B3 VH
VL: B3 VL with K33R, F57Y
modifications: humanized sequence

Columns and labels:
[1] = target: NPY4R (Homo sapiens, UniProt P50391); experiment: effect on the Y2Receptor family
NPY4R, sequence (P50391 whole entry, species assumed): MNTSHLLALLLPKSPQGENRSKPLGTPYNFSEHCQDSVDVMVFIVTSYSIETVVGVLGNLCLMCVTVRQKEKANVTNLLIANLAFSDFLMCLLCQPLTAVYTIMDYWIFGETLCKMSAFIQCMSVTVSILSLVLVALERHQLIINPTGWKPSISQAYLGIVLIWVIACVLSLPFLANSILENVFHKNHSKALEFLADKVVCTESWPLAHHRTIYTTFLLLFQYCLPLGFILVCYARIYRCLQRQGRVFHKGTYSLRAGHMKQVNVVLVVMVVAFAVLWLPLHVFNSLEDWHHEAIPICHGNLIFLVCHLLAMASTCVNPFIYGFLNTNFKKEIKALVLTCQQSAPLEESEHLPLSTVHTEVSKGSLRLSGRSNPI

[2] = target: T1, NPY2R; experiment: effect on the Y2Receptor family
[3] = target: T2, NPY5R; experiment: effect on the Y2Receptor family
[4] = target: anti-HeliCar motif amino acid sequence antibody; experiment: binding of PYY peptides to anti-HeliCar motif antibody
[5] = target: human tau phosphorylated at S422 (Homo sapiens, UniProt P10636, S739X); experiment: Western Blot selectivity of humanized VH/VL combinations; format: binding; conditions: for WB: summary grading 1 to 4, key not given
Text: FIG. 5 is a Western Blot showing the selectivity of selected humanized VH/VL combinations; (1)=VH00/VL00, (2)=VH32/VL21, (3)=VH20/VL22, (4)=VH32/VL22, (5)=VH33/VL22.
The sensitivity of selected humanized VH/VL combinations to the human tau mutant S422A can be seen from the Western Blots shown in FIG. 5. All humanized variants selectively bind to human tau phosphorylated at S422.

[6] = target: T3, S422A tau mutant S422A SEQ ID NO: 01 (Homo sapiens, UniProt P10636, S739A); experiment: ELISA binding specificity of VH/VL combinations
T3 construct: (A)=full length human tau S422A mutant
T3 sequence (P10636 1-441 isoform P10636-8 S422A): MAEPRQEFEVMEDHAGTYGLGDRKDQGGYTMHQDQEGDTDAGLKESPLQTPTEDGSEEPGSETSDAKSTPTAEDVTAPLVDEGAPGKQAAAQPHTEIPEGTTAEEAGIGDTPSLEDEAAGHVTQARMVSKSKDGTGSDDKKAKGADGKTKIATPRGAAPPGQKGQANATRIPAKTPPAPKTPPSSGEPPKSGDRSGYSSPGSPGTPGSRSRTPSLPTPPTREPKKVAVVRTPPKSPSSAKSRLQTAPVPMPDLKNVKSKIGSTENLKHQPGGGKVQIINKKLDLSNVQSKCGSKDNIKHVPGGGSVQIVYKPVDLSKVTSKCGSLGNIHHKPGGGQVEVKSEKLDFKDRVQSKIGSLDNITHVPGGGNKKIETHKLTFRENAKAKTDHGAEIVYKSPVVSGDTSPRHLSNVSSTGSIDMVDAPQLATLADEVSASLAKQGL
Method: (§1) In the following Table the binding specificity for different VH/VL combinations are shown (EC50 values in [ng/ml]).
(§2) Non-biotinylated peptide/protein/aggregate was added to non-coated Maxisorb plates, biotinylated peptide/protein/aggregate in PBS was added to streptavidin-coated Maxisorb plates, and plates were incubated over-night. The supernatant was discarded and the wells washed three times with 90 μl wash buffer (lx PBS/0.1% Tween 20). Remaining reactive spots were blocked with blocking buffer (lx PBS/2% BSA (Bovine Serum Albumin Fraction V, fatty acid free, Roche, Cat. No.: 10735078001)/0.05% Tween 20) by incubating for one hour. The supernatant was discarded and the wells washed three times with 90 μl wash buffer. Samples and control antibody were prepared in 12 dilutions (1:2) in ELISA buffer (lx PBS/0.5% BSA (Bovine Serum Albumin Fraction V, fatty acid free, Roche, Cat. No.: 10735078001)/0.05% Tween 20) with a start concentration of 500 ng/ml. The incubation time was 60 minutes at room temperature on a shaker. The supernatant was discarded and the wells washed three times with 90 μl wash buffer. Solutions of secondary antibody were prepared in ELISA buffer. A total of 25 μl antibody-mix was transferred to all wells of the assay plate and the plate was thereafter incubated on shaker for 60 minutes at room temperature. The supernatant was discarded and the wells were washed three times with 90 μl wash buffer. 25 μl of ABTS solution was added to all wells. The absorbance was read at 405 nm-492 nm.

[7] = target: T4, tau peptide residues 416 to 430 of SEQ ID NO: 01 (Homo sapiens, UniProt P10636); experiment: ELISA binding specificity of VH/VL combinations
T4 construct: 416 to 430
Method: as §1, §2

[8] = target: tau(pS422) fragment SEQ ID NO: 03 (Homo sapiens, UniProt P10636, S739X); experiment: ELISA binding specificity of VH/VL combinations
Method: as §1, §2

[9] = target: full length tau(pS422) SEQ ID NO: 02 (Homo sapiens, UniProt P10636, S739X); experiment: ELISA binding specificity of VH/VL combinations
Method: as §1, §2

[10] = target: tau(pS422) aggregates (Homo sapiens, UniProt P10636, S739X); experiment: ELISA binding specificity of VH/VL combinations
Method: as §1, §2

[11] = target: T5, human tau(pS422) (Homo sapiens, UniProt P10636, S739X); experiment: BIAcore kinetic screening and kinetic rates of humanized VH/VL combinations; format: binding; conditions: for MR: molar ratio; for BIAcore: summary grading 1 to 4, key not given
Method: In the following Table characteristics of the different humanized variants of the rabbit light chain variable domain in combination with the humanized heavy chain variable domains VH14 and VH20, respectively, are shown. Binding partner was human tau(pS422).
Kinetic screening was performed according to Schraeml et al. (Schraeml, M. and M. Biehl, Methods Mol. Biol. 901 (2012) 171-181) on a BIAcore 4000 instrument, mounted with a BIAcore CM5 sensor. The BIAcore 4000 instrument was under the control of the software version V1.1. A BIAcore CM5 series S chip was mounted into the instrument and was hydrodynamically addressed and preconditioned according to the manufacturer's instructions. The instrument buffer was HBS-EP buffer (10 mM HEPES (pH 7.4), 150 mM NaCl, 1 mM EDTA, 0.05% (w/v) P20). An antibody capture system was prepared on the sensor surface. A polyclonal goat anti-human antibody with human IgG-Fc specificity (Jackson Lab.) was immobilized at 30 μg/ml in 10 mM sodium acetate buffer (pH 5) to spots 1, 2, 4 and 5 in the instrument's flow cells 1, 2, 3 and 4 at 10,000 RU using NHS/EDC chemistry. In each flow cell the antibodies were captured on spot 1 and spot 5. Spot 2 and spot 4 were used as reference spots. The sensor was deactivated with a 1 M ethanolamine solution. Humanized antibody derivatives were applied at concentrations between 44 nM and 70 nM in instrument buffer supplemented with 1 mg/ml CMD (carboxymethyldextrane). The antibodies were injected at a flow rate of 30 μl/min for 2 minutes. The capture level (CL) of the surface-presented antibodies was measured in rel. response units (RU). The analytes in solution, phosphorylated human tau protein, non-phosphorylated human tau protein and the phosphorylated human tau mutant protein T422S were injected at 300 nM for 3 minutes at a flow rate of 30 μl/minute. The dissociation was monitored for 5 minutes. The capture system was regenerated by a 1 minute injection of 10 mM glycine buffer, pH 1.7 at 30 μL/minute over all flow cells. Two report points, the recorded signal shortly before the end of the analyte injection, denoted as binding late (BL) and the recorded signal shortly before the end of the dissociation time, stability late (SL), were used to characterize the kinetic screening performance. Furthermore, the dissociation rate constant kd (1/s) was calculated according to a Langmuir model and the antibody/antigen complex half-life was calculated in minutes according to the formula ln(2)/(60*kd). The molar ratio (MR) was calculated according to the formula MR=(Binding Late (RU))/(Capture level (RU))*(MW(antibody)/(MW(antigen)). In case the sensor was configured with a suitable amount of antibody ligand capture level, each antibody should be able to functionally bind at least to one analyte in solution, which is represented by a molar ratio of MR=1.0. Then, the molar ratio is also an indicator for the valence mode of analyte binding. The maximum valence can be MR=2 for an antibody binding two analytes, one with each Fab valence.
In another embodiment, kinetic rates were determined at 25° C. and 37° C. using the same experimental setup, but using multiple concentration series of each analyte in solution at 0 nM (buffer), 1.2 nM, 3.7 nM, 11.1 nM, 33.3 nM, 100 nM and 300 nM. From the concentration-dependent binding behavior the kinetic data was calculated using the BIAcore evaluation software according to the manufacturer's instructions and a Langmuir 1.1 model with RMAX global.

[12] = target: T5, human tau(pS422); experiment: IHC grading in summary of biological properties; conditions: key not given
Text: The following table summarizes the biological properties of selected humanized VH/VL combinations.

[13] = 25 °C, VL17 or VL19 with VH variants

| Molecule | EC50 S422A tau mutant S422A SEQ ID NO: 01 [6] | EC50 tau peptide residues 416 to 430 of SEQ ID NO: 01 [7] | EC50 tau(pS422) fragment SEQ ID NO: 03 [8] | EC50 full length tau(pS422) SEQ ID NO: 02 [9] | EC50 tau(pS422) aggregates [10] | t/2diss 25° C. ([11]; 25 °C) | Kd ([11]; 25 °C, read-out: KD 25° C.) | t/2diss 37° C. ([11]; 37 °C) | Kd ([11]; 37 °C, read-out: KD 37° C.) | MR ([11]; 25 °C) | MR ([11]; 37 °C) | WB [5] | IHC [12] | BIAcore [11] | other results |
| --- | --- | --- | --- | --- | --- | --- | --- | --- | --- | --- | --- | --- | --- | --- | --- |
| IKPEAPGEDASPEAHLANEVARLHYLNLVTRQRY-NH2 [PYY_HeliCar] | – | – | – | – | – | – | – | – | – | – | – | – | – | – | NPY4R [1]: inactive; NPY2R [2]: 6.38 nM; NPY5R [3]: inactive; Kd [4]: 12 nM |
| B1 | 0.0479 µg/mL | >1 µg/mL | 6.3 ng/ml | 5.2 ng/ml | 18.1 ng/ml | 54 min | 8 nM | 24 min | 12 nM | 0.6 | 0.8 | – | – | – | selectivity and cross-reactivity in Western Blot ([5]; FIG. 5): low level x-reactivity to non-S422 phosphoepitopes |
| B2 | – | – | – | – | – | – | – | – | – | – | – | – | – | – | kd [11, 13]: 0.00326 s⁻¹; t/2 diss [11, 13]: 4 min |
| B3 | 0.0215 µg/mL | 0.634 µg/mL | 4.4 ng/ml | 2.9 ng/ml | 9.4 ng/ml | 26 min | 18 nM | 9 min | 32 nM | 0.5 | 0.6 | 2 | 3 | 2 | – |
| B4 | 0.0174 µg/mL | 0.048 µg/mL | 5.6 ng/ml | 3.5 ng/ml | 8.3 ng/ml | 29 min | 14 nM | 8 min | 31 nM | 0.5 | 0.6 | 1 | 1 | 1 | – |
